Measurements published in publication PMC3314968.

Columns and labels:
[1] = target: K48-linked diubiquitin (UniProt P0CG48); test: ITC; conditions: domain or fragment
[2] = target: K63-linked diubiquitin (UniProt P0CG48); test: ITC; conditions: domain or fragment

Chain of human UBAP1 SOUBA domain (389-502), wild-type (Q9NZ09 389-502): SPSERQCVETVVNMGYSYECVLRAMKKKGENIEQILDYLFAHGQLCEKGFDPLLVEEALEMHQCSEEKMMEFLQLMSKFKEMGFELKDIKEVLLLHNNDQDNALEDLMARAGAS

human UBAP1 SOUBA domain (389-502), wild-type (from UniProt Q9NZ09 389-502)
Kd [1]: 65 µM
Kd [2]: 41 µM
